Test results taken from US20140336126A1 (INSTITUT PASTEUR, published 2014).

B3: myosin phosphatase targeting subunit 1 (MYPT1) (other)
chain: MKMADAKQKRNEQLKRWIGSETDLEPPVVKRQKTKVKFDDGAVFLAACSSGDTDEVLKLLHRGADINYANVDGLTALHQACIDDNVDMVKFLVENGANINQPDNEGWIPLHAAASCGYLDIAEFLIGQGAHVGAVNSEGDTPLDIAEEEAMEELLQNEVNRQGVDIEAARKEEERIMLRDARQWLNSGHINDVRHAKSGGTALHVAAAKGYTEVLKLLIQAGYDVNIKDYDGWTPLHAAAHWGKEEACRILVDNLCDMEMVNKVGQTAFDVADEDILGYLEELQKKQNLLHSEKRDKKSPLIESTANMDNNQSQKTFKNKETLIIEPEKNASRIESLEQEKVDEEEEGKKDESSCSSEEDEEDDSESEAETDKTKPLASVTNANTSSTQAAPVAVTTPTVSSGQATPTSPIKKFPTTATKISPKEEERKDESPATWRLGLRKTGSYGALAEITASKEGQKEKDTAGVTRSASSPRLSSSLDNKEKEKDSKGTRLAYVAPTIPRRLASTSDIEEKENRDSSSLRTSSSYTRRKWEDDLKKNSSVNEGSTYHKSCSFGRRQDDLISSSVPSTTSTPTVTSAAGLQKSLLSSTSTTTKITTGSSSAGTQSSTSNRLWAEDSTEKEKDSVPTAVTIPVAPTVVNAAASTTTLTTTTAGTVSSTTEVRERRRSYLTPVRDEESESQRKARSRQARQSRRSTQGVTLTDLQEAEKTIGRSRSTRTREQENEEKEKEEKEKQDKEKQEEKKESETSREDEYKQKYSRTYDETYQRYRPVSTSSSTTPSSSLSTMSSSLYASSQLNRPNSLVGITSAYSRGITKENEREGEKREEEKEGEDKSQPKSIRERRRPREKRRSTGVSFWTQDSDENEQEQQSDTEEGSNKKETQTDSISRYETSSTSAGDRYDSLLGRSGSYSYLEERKPYSSRLEKDDSTDFKKLYEQILAENEKLKAQLHDTNMELTDLKLQLEKATQRQERFADRSLLEMEKRERRALERRISEMEEELKMLPDLKADNQRLKDENGALIRVISKLSK
notes: also called HA-MYPT1; HA-tagged-MYPT1

Legend:
[1] = molecular target: B3; assay: anti-Flag immunoprecipitation of Flag-PP1β, transfected HEK-293T cells (FIG. 4B)
[2] = molecular target: B3; assay: anti-MYPT1 immunoprecipitation, anti-HA Western blot, transfected HeLa cells (FIG. 4D)
[3] = molecular target: T1, Optineurin (Optn), wild type (human, UniProt Q96CV9 1-577); assay: TAP and co-immunoprecipitations, title of FIG. 4
T1 construct: Full-length wild-type human Optn; also called Optn WT; HA-Optn

B1: type 1 protein phosphatase catalytic subunit PP1β (enzyme, UniProt P62140 1-327, looked up)
chain: MADGELNVDSLITRLLEVRGCRPGKIVQMTEAEVRGLCIKSREIFLSQPILLELEAPLKICGDIHGQYTDLLRLFEYGGFPPEANYLFLGDYVDRGKQSLETICLLLAYKIKYPENFFLLRGNHECASINRIYGFYDECKRRFNIKLWKTFTDCFNCLPIAAIVDEKIFCCHGGLSPDLQSMEQIRRIMRPTDVPDTGLLCDLLWSDPDKDVQGWGENDRGVSFTFGADVVSKFLNRHDLDLICRAHQVVEDGYEFFAKRQLVTLFSAPNYCGEFDNAGGMMSVDETLMCSFQILKPSEKKAKYQYGGLNSGRPVTPPRTANPPKKR
notes: Endogenous protein or transfected Flag-tagged PP1β (ImaGenes), as said under assay; also called PP1cβ; Flag-tagged-PP1β
- binding result [1]: binds

B2: HA-Optn Δ131-297 (other)
chain: MSHQPLSCLTEKEDSPSESTGNGPPHLAHPNLDTFTPEELLQQMKELLTENHQLKEAMKLNNQAMKGRFEELSAWTEKQKEERQFFEIQSKEAKERLMALSHENEKLKEELGKLKGKSERSSEDPTDDSREVEALNLQVTSLFKELQEAHTKLSKAELMKKRLQEKCQALERKNSAIPSELNEKQELVYTNKKLELQVESMLSEIKMEQAKTEDEKSKLTVLQMTHNKLLQEHNNALKTIEELTRKESEKVDRAVLKELSEKLELAEKALASKQLQMDEMKQTIAKQEEDLETMTILRAQMEVYCSDFHAERAAREKIHEEKEQLALQLAVLLKENDAFEDGGRQSLMEMQSRHGARTSDSDQQAYLVQRGAEDRDWRQQRNIPIHSCPKCGEVLPDIDTLQIHVMDCII
- binding result [2]: no binding

Binder: B3
- binding result [3]: binds
